Assay results: patent US20250027068

Target: pooled human IgG (human IgG1,2,3 and 4)

Row | Protein | Enzyme Activity Endpoint Assay (purified): Fab′2 [ng/µL] | Enzyme Activity Endpoint Assay (purified): Fc [ng/µL] | Enzyme Activity Endpoint Assay (purified): IgG [ng/µL] | Enzyme Activity Endpoint Assay (purified): scIgG [ng/µL] | Enzyme Activity Endpoint Assay: Fab′2 [ng/µL] | Enzyme Activity Endpoint Assay: Fc [ng/µL] | Enzyme Activity Endpoint Assay: IgG [ng/µL] | Enzyme Activity Endpoint Assay: scIgG [ng/µL]
1 | PRT-511 (protein) MITSVWTKGVTPPAKFRKIVDGNIAYYHAPYVANQGWYDITKTFNGKDDLLCGAATAGNMLHWWFDQNKEEIEAYLKKHPEKQKIMFGDQELLDVRKVINTKDSQTNSALFNYFKDKAFPNLSARRLGVMPDLVLDMFINGYYLNVYKTQTTDVNRTYQTKDRRGGIFDAVFTRGDQSKLLTERHDLKNKTLKEISDLIKQELTEGKALGLSHTYANVRINHVINLWGADFDSNGNLEAIYVTDSDSNASIGMKKYFVGVNSAGKVAISAKEIKEDNIGAQVLGLFTLSTGQDIWNQTNLEHHHHHH | 935 | 312 | 62 | 0 |  |  |  | 
2 | PRT-482 (protein) MVTSVWTKGVTPPTDFIKGEDVFHAPYKAGQGWYDITKTFNGKDNLLCGAATAGNMLHWWFDQNKDQIEAYLKEHPEKQKIIFNNQELFDLKAAIDTKDDQTNSKLFEYFKEKAFPYLSTKHLGVFPDHVLDMFINGYRLSLTNHGPTPVKEGSKDKRGGIFDAVFTRGVQSKLLTSRHDFKEKTLKEISDLIKQELTEGKALALSHTYANVRINHVINLWGADFDSNGNLEAIYVTDSDTNASIGMKKYFVGVNSAGKVAISAKEIEDDNIGAQVLGLFTLSTGQDIWNQTNLEHHHHHH |  |  |  |  | 261 | 322 | 146 | 738
3 | PRT-485 (protein) MVTSVWTKGVTPPANFTQGEDVFHAPYKANQGWYDITKTFNGKDNLLCGAATAGNMLHWWFDQNKDQIEAYLKEHPEKQKIIFNNQELFDLKAAIDTKDDQTNSKLFEYFKEKAFPYLSTKHLGVFPDHVLDMFINGYRLSLTNHGPTPVKEGSKDKRGGIFDAVFTRGVQSKLLTSRHDLKNKTLKEISDLIKQELTEGKALALSHTYANVRINHVINLWGADFDSNGNLEAIYVTDSDTNASIGMKKYFVGVNSAGKVAISAKEIEDDNIGAQVLGLFTLSTGQDIWNQTNLEHHHHHH | 0 | 0 | 1400 | 0 |  |  |  | 
4 | PRT-682 (protein) MQITSVWTKGVTPLTPEQFRNNNEDVIHAPYLANQGWYDITKTFNGKDNLLCGAATAGNMLHWWFDQNKTEIEAYLKKHPEKQKIIFNNQELFDLKKAIDTKDSQTNSQLFNYFRDKAFPNLSARQLGVMPDLVLDMFINGYYLNVFKTQSTDVNRPYQDKDKRGGIFDAVFTRGDQTTLLTSRHDLKNKGLNEISDIIKQELTEGKALALSHTYANVSISHVINLWGADFNAEGNLEAIYVTDSDANASIGMKKYFVGVNAHGKVAISAKKIEGENIGAQVLGLFTLSSGKDIWQKLSLEHHHHHH |  |  |  |  | 0 | 0 | 0 | 0
5 | PRT-503 (protein) MITSVWTKGVTPPTDFIKGEDVFHAPYKAGQGWYDITKAFDGGDDLLCGAATAGNMLHWWFDQNKEYIEAYLKKHPEKQKIMFGDQELLDVRKAINTKGSQKNSELFNYFRDKAFPNLSARRLGVMPDLVLDMFINGYYLNVTKTQTTDVNRQEQEKDKRGGIFDAVFGRGDQTKLLTSRHDLKNKGLNEISQLIKQELTEGKALGLSHTYANVRINHVINLWGADFDADGNLEAIYVTDSDSNASIGMKKYFVGVNSAGKVAISAKEIKEDNIGAQVLGLFTLSTGQKIWNKTNLEHHHHHH |  |  |  |  | 0 | 0 | 0 | 0
6 | PRT-498 (protein) MVTSVWTKGVTPPTDFRKIVDGNIAYYHAPYKAGQGWYDITKAFDGGDDLLCGAATAGNMLHWWFDQNKEYIEAYLKKHPEKQKIMFGDQELLDVRKAINTKGSQKNSELFNYFRDKAFPNLSARRLGVMPDLVLDMFINGYYLNVTKTQTTDVNRTYQEKDKRGGIFDAVFTRGDQSKLLTSRHDLKNKGLKEISDLIKQELTEGKALGLSHTYANVRINHVINLWGADFDSDGNLKAIYVTDSDSNASIGMKKYFVGVNSAGKVAISAKEIKEDNIGAQVLGLFTLSTGQDIWNQTNLEHHHHHH | 488 | 318 | 325 | 124 |  |  |  | 
7 | PRT-667 (protein) MQITSVWTKGVTPLTPEQFRYNNEDVFHAPYLAHQGWYDITKAFNGKDNLLCGAATAGNMLHWWFDQNKEEIEAYLKKHPEKQKIIFNNQELFDLRKAINTKDSQTNSQLFNYFRDKAFPNLSARQLGVMPDLVLDMFINGYYLNLNKTQSTDVNRPYQDKDKRGGIFDHVFTRGDQTTLLTARHDLKNKTLNDISQLIKQELQEGKALALSHTYANVSISHVINLWGADFNAEGNLEAIYVTDSDSDASIGMKKYFVGKNASGHVAISAKKIEGENIGAQVLGLFTLSSGKEIWQKLSLEHHHHHH | 61 | 197 | 279 | 896 |  |  |  | 
8 | PRT-455 (protein) MITSVWTKGVTPPTDFIKGEDVFHAPYKAGQGWYDITKAFDGGDDLLCGAATAGNMLHWWFDQNKDQIEAYLKEHPEKQKINFNGEQMFDVKEAIDTKDDQTNSELFNYFKEKAFPYLSTKHLGVFPDHVLDMFINGYRLSLTNHGPTPVKRQEKDPRGGIFDAVFGRGDQTKLLTSRHDLKNKTLNEISQLIKQELTEGKALALSHTYANVRINHVINLWGADFDAEGNLEAIYVTDSDSNASIGMKKYFVGVNSAGKVAISAKEIEDDNIGAQVLGLFTLSTGQKIWNKTNLEHHHHHH |  |  |  |  | 872 | 416 | 0 | 333
9 | PRT-688 (protein) MQITSVWTKGVTPLTMDDFTINNEDVIHAPYVANQGWYDITKTFNGKDNLLCGAATAGNMLHWWFDQNKEEIERYLKKHPEKQKIIFNNQELFDLKEAINTKDSQTDSKLFNYFRDKAFPNLSARQLGVMPDLVLDMFINGYYLNVFKTQSTDVNRPYDTKDKRGGIFDHVFTRGDQSTLLTARHDLKNKTLKEISDIIKQELTEGKALALSHTYANVSISHVINLWGADFNAEGNLEAIYVTDSDANASIGMKKYYVGVNSHGKVAISAKKIEGENIGAQVLGLFTLSSGKDIWQKLSLEHHHHHH | 0 | 0 | 1950 | 0 |  |  |  | 
10 | PRT-496 (protein) MVTSVWTKGVTPPTDFIKGEDVFHAPYKAGQGWYDITKTFNGKDDLLCGAATAGNMLHWWFDQNKEYIEAYLKKHPEKQKIMFGDQELLDVRKAINTKGSQKNSELFNYFRDKAFPNLSARRLGVMPDLVLDMFINGYYLNVTKTQTTDVNRTYQEKDKRGGIFDAVFTRGDQSKLLTSRHDLKNKGLKEISDLIKQELTEGKALGLSHTYANVRINHVINLWGADFDSDGNLKAIYVTDSDSNASIGMKKYFVGVNSAGKVAISAKEIKEDNIGAQVLGLFTLSTGQDIWNQTNLEHHHHHH |  |  |  |  | 190 | 192 | 0 | 0
11 | PRT-501 (protein) MVTSVWTKGVTPPADFTQGEDVFHAPYVANQGWYDITKTFNGKDDLLCGAATAGNMLHWWFDQNKEYIEAYLKKHPEKQKIMFGDQELLDVRKAINTKGSQKNSELFNYFRDKAFPNLSARRLGVMPDLVLDMFINGYYLNVTKTQTTDVNRTYQEKDKRGGIFDAVFTRGDQSKLLTSRHDLKNKGLKEISDLIKQELTEGKALGLSHTYANVRINHVINLWGADFDSDGNLKAIYVTDSDSNASIGMKKYFVGVNSAGKVAISAKEIKEDNIGAQVLGLFTLSTGQDIWNQTNLEHHHHHH | 0 | 0 | 1950 | 0 |  |  |  | 
12 | PRT-508 (protein) MITSVWTKGVTPPTDFIKGEDVFHAPYKAGQGWYDITKTFNGKDDLLCGAATAGNMLHWWFDQNKEEIEAYLKKHPEKQKIMFGDQELLDVRKVINTKDSQTNSALFNYFKDKAFPNLSARRLGVMPDLVLDMFINGYYLNVYKTQTTDVNRTYQTKDRRGGIFDAVFTRGDQSKLLTERHDLKNKTLKEISDLIKQELTEGKALGLSHTYANVRINHVINLWGADFDSNGNLEAIYVTDSDSNASIGMKKYFVGVNSAGKVAISAKEIKEDNIGAQVLGLFTLSTGQDIWNQTNLEHHHHHH |  |  |  |  | 0 | 0 | 0 | 0
13 | PRT-517 (protein) MITSVWTKGVTPPTDFIKGEDVFHAPYKAGQGWYDITKAFDGGDDLLCGAATAGNMLHWWFDQNKEEIEAYLKKHPEKQKIMFGDQELLDVRKVINTKDSQTNSALFNYFKDKAFPNLSARRLGVMPDLVLDMFINGYYLNVYKTQTTDVNRQEQTKDRRGGIFDAVFGRGDQTKLLTERHDLKNKTLKEISDLIKQELTEGKALGLSHTYANVRINHVINLWGADFDSNGNLEAIYVTDSDSNASIGMKKYFVGVNSAGKVAISAKEIKEDNIGAQVLGLFTLSTGQKIWNKTNLEHHHHHH | 0 | 0 |  | 22 |  |  |  | 
14 | PRT-677 (protein) MQITSVWTKGVIPPTMDQFRYNNYDVFHAPYLPHQGWYDITKTFDGGDNLLCGAATAGNMLHWWFDQNKEYIENYLKKYPEKQKIIFNNQELFDLRKAINTKDSQTNSELFNYFRDKAFGNLSARQKGVMPDLVLDMFINGYYLNLFKTQSTDVNRPNDTRDKRGGFFDHVFGRGDQTKLLTARHDLYNGGLSDISQLIKQELQSGKALAISHTYGNVSSSHVINLWGADFDAEGNLEAIYVTDSDDRSSIGMKKYYVGINASGKVAISAKKIEGENVGAQVLGLFTLSSGKEIWKKLSLEHHHHHH |  |  |  |  | 0 | 0 | 0 | 0
